Consider nine molecules from patent US20230285583A1, “LIQUID FORMULATION OF LONG-ACTING CONJUGATE OF GLUCAGON, GLP-1, AND GIP TRIGONAL AGONIST” (HANMI PHARM, CO., LTD., priority 2020, published 2023).

Bridge positions count the residues as written; N and C are the ends. Square brackets hold non-standard residues; d marks the D form. Ends that are not written are not given here. Aib = CC(C)(N)C(=O)O

Common to all, as to experiment: cell-based or functional assay
One assay has as its target human GLP-1 receptor (human, UniProt P43220 24-463).
For the next assay, the target named is T1, human GIP receptor (human, UniProt P48546 22-466).
T1 sequence (looked up): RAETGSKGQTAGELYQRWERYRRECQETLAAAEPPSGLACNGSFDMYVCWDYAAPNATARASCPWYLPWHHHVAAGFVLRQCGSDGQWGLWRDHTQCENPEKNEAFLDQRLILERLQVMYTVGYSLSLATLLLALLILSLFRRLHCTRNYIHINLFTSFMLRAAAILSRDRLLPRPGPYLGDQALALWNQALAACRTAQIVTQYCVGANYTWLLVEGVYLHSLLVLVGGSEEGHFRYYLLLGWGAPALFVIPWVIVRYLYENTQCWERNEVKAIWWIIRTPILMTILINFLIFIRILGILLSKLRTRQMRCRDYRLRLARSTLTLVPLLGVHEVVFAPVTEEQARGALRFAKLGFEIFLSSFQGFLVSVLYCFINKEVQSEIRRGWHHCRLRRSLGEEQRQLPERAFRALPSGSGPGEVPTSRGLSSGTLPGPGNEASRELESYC

A further assay has as its target human GCG receptor (human, UniProt P47871 26-477).

Sequence of human GCG receptor (P47871 26-477): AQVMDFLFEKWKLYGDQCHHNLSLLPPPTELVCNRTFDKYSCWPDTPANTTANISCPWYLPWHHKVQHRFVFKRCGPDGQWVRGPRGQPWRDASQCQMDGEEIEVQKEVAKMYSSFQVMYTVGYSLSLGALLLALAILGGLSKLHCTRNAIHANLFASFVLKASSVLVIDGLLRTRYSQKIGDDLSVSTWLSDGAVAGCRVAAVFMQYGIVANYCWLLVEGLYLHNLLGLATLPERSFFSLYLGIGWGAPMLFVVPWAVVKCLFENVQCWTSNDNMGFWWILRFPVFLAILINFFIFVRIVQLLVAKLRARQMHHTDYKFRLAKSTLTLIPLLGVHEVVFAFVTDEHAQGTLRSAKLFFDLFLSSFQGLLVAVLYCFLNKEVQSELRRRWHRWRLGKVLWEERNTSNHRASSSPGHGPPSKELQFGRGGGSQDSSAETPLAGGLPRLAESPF

B1: trigonal agonist of SEQ ID NO: 15 (peptide)
peptide: H[Aib]EGTFTSDYSIAMDEIHQKDFVDWLLAEC
modifications: bridge 16-20; not fully specified (bridges)
Take B1: the “In Vitro Activity Compared to Native Peptide (%) vs. GLP-1 (relative titer from cAMP EC50)” value with human GLP-1 receptor worked out at 30.6%. In the assay with human GIP receptor, the “In Vitro Activity Compared to Native Peptide (%) vs. GIP (relative titer from cAMP EC50)” value was found to be 0.1%. Moreover, the “In Vitro Activity Compared to Native Peptide (%) vs. Glucagon (relative titer from cAMP EC50)” value with human GCG receptor was 1.4%.

B2: trigonal agonist of SEQ ID NO: 18 (peptide)
peptide: H[Aib]QGTFTSDYSKYLDEKRQKEFVQWLLNTKC
modifications: bridge 16-20; not fully specified (bridges)
Consider B2, for which, in the assay with human GLP-1 receptor, the “In Vitro Activity Compared to Native Peptide (%) vs. GLP-1 (relative titer from cAMP EC50)” value was 39.1%. Also, the “In Vitro Activity Compared to Native Peptide (%) vs. GIP (relative titer from cAMP EC50)” value with human GIP receptor was 0.2%. The “In Vitro Activity Compared to Native Peptide (%) vs. Glucagon (relative titer from cAMP EC50)” value with human GCG receptor was 2.6%.

B3: trigonal agonist of SEQ ID NO: 13 (peptide)
peptide: H[Aib]QGTFTSDYSKYLDEKRQKEFVQWLLDTC
modifications: bridge 16-20; not fully specified (bridges)
With B3, the “In Vitro Activity Compared to Native Peptide (%) vs. GLP-1 (relative titer from cAMP EC50)” value in the assay with human GLP-1 receptor amounted to 44.1%. In addition, in the assay with human GIP receptor, the “In Vitro Activity Compared to Native Peptide (%) vs. GIP (relative titer from cAMP EC50)” value stood at 0.3%. Also, the “In Vitro Activity Compared to Native Peptide (%) vs. Glucagon (relative titer from cAMP EC50)” value in the assay with human GCG receptor came to 7.5%.

B4: trigonal agonist of SEQ ID NO: 2 (peptide)
peptide: Y[Aib]QGTFTSDYSKCLDEKRAKEFVQWLLDHHPSSGQPPPS
modifications: bridge 16-20; not fully specified (bridges)
As to B4, in the assay with human GLP-1 receptor, the “In Vitro Activity Compared to Native Peptide (%) vs. GLP-1 (relative titer from cAMP EC50)” value turned out to be 20.1%. For the same molecule, in the assay with human GIP receptor, the “In Vitro Activity Compared to Native Peptide (%) vs. GIP (relative titer from cAMP EC50)” value was found to be 59.7%. Moreover, in the assay with human GCG receptor, the “In Vitro Activity Compared to Native Peptide (%) vs. Glucagon (relative titer from cAMP EC50)” value was determined as 140%.

B5: trigonal agonist of SEQ ID NO: 17 (peptide)
peptide: H[Aib]QGTFTSDYSKYLDEKRQKEFVNWLLAQC
modifications: bridge 16-20; not fully specified (bridges)
As to B5, the “In Vitro Activity Compared to Native Peptide (%) vs. GLP-1 (relative titer from cAMP EC50)” value with human GLP-1 receptor was 57.9%. Also, the “In Vitro Activity Compared to Native Peptide (%) vs. GIP (relative titer from cAMP EC50)” value with human GIP receptor was 0.8%. Besides, the “In Vitro Activity Compared to Native Peptide (%) vs. Glucagon (relative titer from cAMP EC50)” value with human GCG receptor turned out to be 4.9%.

B6: trigonal agonist of SEQ ID NO: 11 (peptide)
peptide: H[Aib]QGTFTSDYSKYLDEKRAKEFVQWLLDHHPSSGQPPPSC
modifications: bridge 16-20; not fully specified (bridges)
As for B6, the “In Vitro Activity Compared to Native Peptide (%) vs. GLP-1 (relative titer from cAMP EC50)” value with human GLP-1 receptor turned out to be 67.4%. Also, the “In Vitro Activity Compared to Native Peptide (%) vs. GIP (relative titer from cAMP EC50)” value in the assay with human GIP receptor was determined as 2.7%. The “In Vitro Activity Compared to Native Peptide (%) vs. Glucagon (relative titer from cAMP EC50)” value with human GCG receptor worked out at 50.5%.

B7: trigonal agonist of SEQ ID NO: 14 (peptide)
peptide: H[Aib]EGTFTSDYSIAMDEIHQKDFVNWLLAQC
modifications: lactam 16-20
On to B7, for which, in the assay with human GLP-1 receptor, the “In Vitro Activity Compared to Native Peptide (%) vs. GLP-1 (relative titer from cAMP EC50)” value came out at 161%. For the same molecule, the “In Vitro Activity Compared to Native Peptide (%) vs. GIP (relative titer from cAMP EC50)” value in the assay with human GIP receptor is 1.3%. Further, the “In Vitro Activity Compared to Native Peptide (%) vs. Glucagon (relative titer from cAMP EC50)” value with human GCG receptor worked out at 8.4%.

B8: trigonal agonist of SEQ ID NO: 16 (peptide)
peptide: H[Aib]QGTFTSDYSIAMDEIHQKDFVNWLLAQC
modifications: lactam 16-20
Consider B8, for which, in the assay with human GLP-1 receptor, the “In Vitro Activity Compared to Native Peptide (%) vs. GLP-1 (relative titer from cAMP EC50)” value came out at 27.1%. Also, the “In Vitro Activity Compared to Native Peptide (%) vs. GIP (relative titer from cAMP EC50)” value with human GIP receptor was found to be 2.4%. Also, in the assay with human GCG receptor, the “In Vitro Activity Compared to Native Peptide (%) vs. Glucagon (relative titer from cAMP EC50)” value was found to be 0.7%.

B9: trigonal agonist of SEQ ID NO: 12 (peptide)
peptide: H[Aib]QGTFTSDYSKYLDEKRQKEFVQWLLNTC
modifications: bridge 16-20; not fully specified (bridges)
For the molecule B9, in the assay with human GLP-1 receptor, the “In Vitro Activity Compared to Native Peptide (%) vs. GLP-1 (relative titer from cAMP EC50)” value worked out at 14.4%. Moreover, in the assay with human GIP receptor, the “In Vitro Activity Compared to Native Peptide (%) vs. GIP (relative titer from cAMP EC50)” value was found to be 0.1%. Further, in the assay with human GCG receptor, the “In Vitro Activity Compared to Native Peptide (%) vs. Glucagon (relative titer from cAMP EC50)” value stood at 2%.
